According to patent publication US20170096487A1 (VENTANA MEDICAL SYSTEMS, published 2017):

Assays:
HER2 = biological target: T1, HER2 (UniProt P04626 23-1255, limits assumed); test: IHC on FFPE transfected HEK293 cells, Ventana Benchmark XT
T1 construct: whole, on cells
Procedure: (§1) The suitability of the newly developed HER3 monoclonal antibodies MAK<humanHER3> M-7.2.42 and MAK<humanHER3> M-7.3.8 was shown using FFPE cell line controls. Therefore HER1, HER2, HER3 or HER4 transfected or untransfected HEK293 cells, respectively, were fixed with 4% PBS buffered formaldehyde and were subsequently embedded in paraffin.
(§2) All staining procedures were performed on the Ventana Benchmark XT automated IHC stainer using Ventana buffers and reagents, i.e., amongst others, the standard cell conditioning 1 (CC1) reagent for sample preparation and ultraView DAB as detection system.
(§3) As obvious from FIG. 3 the newly developed HER3 monoclonal antibodies MAK<humanHER3> M-7.2.42 and MAK<humanHER3> M-7.3.8 show specific membrane staining only on HER3 transfected cells. HER1, HER2 and HER4-transfected cells and control cells are negative. HER3 monoclonal antibodies MAK<humanHER3> M-7.2.42 and MAK<humanHER3> M-7.3.8 show good IHC-staining with HER3 transfected cells if used according to standard protocols on the Ventana Benchmark XT analyzer (see FIG. 3, HER3 captioned cell staining).

HER4 = biological target: T2, HER4 (UniProt Q15303 26-1308, limits assumed); test: as above
T2 construct: whole, on cells
Procedure: as §1, §2, §3

HER1 [1] = biological target: T3, HER1 (UniProt P00533 25-1210, limits assumed); test: Western blot on lysates of transfected HEK293 cells, RT and 37 C
T3 construct: whole, on cells; also called EGFR
Procedure: Lysates were prepared from several HEK293 control cell lines. The cells were transiently transfected with plasmids coding for HER1, HER2, HER3 or HER4. HEK293 cells transfected with the mammalian expression vector pRK5 were used as negative control. For western blotting 10 μg protein lysates were loaded per lane on 4-12% NuPage SDS gels (Invitrogen). Western blotting was performed according to standard protocols with standard NuPage buffers and reagents (Invitrogen). After blocking the membrane was incubated with MAK<humanHER3> M-7.2.42, MAK<humanHER3> M-7.3.8 or the HER3 monoclonal antibody DAK-H3-IC from Dako. MAK<humanHER3> M-7.2.42 and MAK<humanHER3> M-7.3.8 were used at a concentration of lng/ml. Primary antibody incubation was performed for 60 min at RT and at 37° C. HRP-conjugated anti-mouse Fab was used as secondary antibody. The dilution of DAK-H3-IC antibody was made as recommended by its manufacturer and the choice of secondary (detection) antibody was adapted as required. The membrane was developed with ECL (Amersham) and exposed to an x-ray film.

[2] = biological target: T4, biotinylated HER3 peptide (screening peptide with a sequence corresponding to the immunogen); test: Biacore A100 SPR, antibody captured from hybridoma supernatant on anti-mouse Fc, streptavidin-grafted biotinylated HER3 peptide as analyte, 25 C
T4 construct: Synthetic peptide of HER3; also called HER3 antigen peptide; peptide-graft
Procedure: For selection of suitable antibodies, a kinetic screening was performed on hybridoma culture supernatants. The measurements were done using Biacore SPR technology. The CM5 series S sensor chip was mounted into an A100 instrument (GE Healthcare, Biacore) and was hydrodynamically addressed in HBSN buffer (10 mM HEPES pH 7.4, 150 mM NaCl) according to the manufacturer's instructions. The system buffer was HBS-ET (10 mM HEPES pH 7.4, 150 mM NaCl, 0.05% TWEEN 20). The sample buffer was the system buffer supplemented with 1 mg/ml CMD (Carboxymethyldextrane, Sigma #86524). The system was driven at 25° C.
10000 RU RAMIgGFC (relative units of rabbit-anti-mouse F(c)gamma-fragment of the respective mouse immunoglobulin G subclass/Jackson Laboratories) were immobilized according to the manufacturer's instructions using EDC/NHS chemistry on the flow cells FC1 (anti-mouse F(c)gamma of subclass 1), FC2, FC3 and FC4, respectively, on the sensitive spots 1, 2, 4 and 5 on each flow cell. The spots were deactivated using 1M ethanolamine.
The binding activity of antibodies against the HER3 peptide was kinetically tested. Antibodies were captured by a 1 min injection at 10 μl/min of crude hybridoma supernatants diluted 1:3 in sample buffer. Biotinylated Her-3 peptides were carefully singly grafted on streptavidin to enlarge the molecular weight of the complexes and to increase the mass sensitivity of the system. Since the antigen complex dissociation kd is independent of the analyte injection concentration, this is a legal method to increase the sensitivity of the system.

HER1 [3] = biological target: T3, HER1; test: IHC on FFPE transfected HEK293 cells, Ventana Benchmark XT
Procedure: as §1, §2, §3

T2 sequence (Q15303 26-1308 limits assumed): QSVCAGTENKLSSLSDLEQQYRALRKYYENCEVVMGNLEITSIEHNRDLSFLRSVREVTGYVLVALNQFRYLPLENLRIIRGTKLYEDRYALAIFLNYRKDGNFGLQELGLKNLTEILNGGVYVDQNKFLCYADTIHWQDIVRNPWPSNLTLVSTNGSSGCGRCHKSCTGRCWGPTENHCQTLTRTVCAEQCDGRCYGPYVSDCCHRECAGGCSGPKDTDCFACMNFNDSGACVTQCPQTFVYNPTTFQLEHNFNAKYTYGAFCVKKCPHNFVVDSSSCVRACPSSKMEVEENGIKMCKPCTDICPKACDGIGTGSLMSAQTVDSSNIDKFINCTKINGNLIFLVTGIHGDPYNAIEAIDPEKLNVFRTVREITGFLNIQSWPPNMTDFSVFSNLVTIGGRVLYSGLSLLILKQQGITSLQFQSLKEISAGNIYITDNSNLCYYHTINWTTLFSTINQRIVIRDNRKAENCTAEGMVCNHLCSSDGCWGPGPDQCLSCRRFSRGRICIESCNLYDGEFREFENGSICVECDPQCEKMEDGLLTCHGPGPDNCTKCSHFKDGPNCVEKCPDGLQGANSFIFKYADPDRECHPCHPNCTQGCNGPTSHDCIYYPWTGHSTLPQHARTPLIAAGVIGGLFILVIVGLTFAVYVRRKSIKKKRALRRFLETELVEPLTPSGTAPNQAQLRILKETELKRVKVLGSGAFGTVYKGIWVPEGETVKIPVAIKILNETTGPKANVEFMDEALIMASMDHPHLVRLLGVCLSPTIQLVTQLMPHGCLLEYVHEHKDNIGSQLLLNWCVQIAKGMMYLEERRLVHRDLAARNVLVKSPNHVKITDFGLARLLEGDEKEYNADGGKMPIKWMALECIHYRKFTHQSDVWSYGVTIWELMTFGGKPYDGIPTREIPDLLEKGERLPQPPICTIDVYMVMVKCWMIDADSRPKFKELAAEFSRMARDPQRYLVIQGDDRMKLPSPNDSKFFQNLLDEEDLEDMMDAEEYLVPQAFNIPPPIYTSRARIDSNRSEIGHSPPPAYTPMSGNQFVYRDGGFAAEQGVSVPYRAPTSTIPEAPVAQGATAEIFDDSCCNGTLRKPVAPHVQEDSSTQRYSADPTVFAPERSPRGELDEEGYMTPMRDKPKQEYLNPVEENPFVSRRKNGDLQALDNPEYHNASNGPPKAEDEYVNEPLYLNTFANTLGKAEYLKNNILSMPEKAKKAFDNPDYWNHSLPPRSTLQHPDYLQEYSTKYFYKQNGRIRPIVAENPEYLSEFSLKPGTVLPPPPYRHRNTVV

Row | binding result (HER2) | binding result (HER4) | koff [2] | t½ diss [2] | binding result (HER1 [3]) | Binder | binding result (HER1 [1])
1 | no binding | no binding | 4.26e-05 s⁻¹ | 4.52 h | – | MAK<humanHER3> M-7.2.42 (antibody, V domains shown, Tested as crude hybridoma supernatant in the Biacore screening; also called HER3 monoclonal antibody MAK<humanHER3> M-7.2.42) VH: EVQLLQSGPELVKPGASVKMSCKASGYTFTDYNLHWVKQSHGRTLEWIGYFNPYNGGTFYTQKFKDKATLTINKSSSTAYMELRSLTSEDSAVYYCTRRYFDGSSYFDYWGQGTTLTVSS VL: DVLMTQTPLSLPVSLGDQASISCRSSQTIVHSNGNTYLEWYVQKPGQSLKLLIYKVSNRFSGVPDRFSGSGSGTDFTLKISRVEAEDLGVYYCFQGSHVPRAFGGGTKLEIKR | no binding (tested: lng/ml (so in the source))
2 | no binding | no binding | 2.66e-05 s⁻¹ | 7.25 h | no binding | MAK<humanHER3> M-7.3.8 (antibody, V domains shown, Tested as crude hybridoma supernatant in the Biacore screening; also called antibody 7.3.8; HER3 monoclonal antibody MAK<humanHER3> M-7.3.8) VH: EVQLQQSGPELAKPGASVKMSCKASGYTFTDYNLHWVKQSHGKTLEWIGYFNTYNGGIFYTQKFKDKATLTINKSSSTAYMELRSLTSEDSAVYYCTRRYFDGSSYFDYWGRGTTLTVSS VL: DVLMTQIPLSLPVSLGDQASISCRSSQSIVHSNGNTYLEWYVQKPGQSPKLLIYKVSNRFSGVPDRFSGSGSGTDFTLKISRVEAEDLGVYYCFQGSHAPRTFGGGTKLEIKR | –
